Usually Kd stands for the concentration at which binding is half-saturated. High values mean lower affinity, low ones higher affinity.

For this test, the target named is T1, human eIF5-mimic protein 1 (h5MP1), wild type, untagged (human, UniProt Q9Y6E2 1-419).
T1 sequence (looked up): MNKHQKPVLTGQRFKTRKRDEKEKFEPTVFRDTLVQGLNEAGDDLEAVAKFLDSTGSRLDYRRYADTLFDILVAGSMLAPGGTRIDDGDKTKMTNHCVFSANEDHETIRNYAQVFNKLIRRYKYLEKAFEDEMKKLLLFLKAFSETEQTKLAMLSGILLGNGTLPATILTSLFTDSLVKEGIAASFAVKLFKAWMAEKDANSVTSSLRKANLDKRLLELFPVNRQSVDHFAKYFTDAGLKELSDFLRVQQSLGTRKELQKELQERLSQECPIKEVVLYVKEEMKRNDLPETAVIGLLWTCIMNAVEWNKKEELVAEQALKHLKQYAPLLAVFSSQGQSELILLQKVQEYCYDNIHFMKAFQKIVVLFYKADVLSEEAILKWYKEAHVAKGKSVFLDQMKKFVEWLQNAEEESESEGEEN
Briefly: ITC.

B1: heIF2β_(53-136), GB1- and His-tags removed (domain or fragment, human, UniProt P20042 53-136, looked up)
chain: DLEADEEDTRKKDASDDLDDLNFFNQKKKKKKTKKIFDIDEAEEGVKDLKIESDVQEPTEPEDDLDIMLGNKKKKKKNVKFPDE
As to B1, binding was characterised by a dissociation constant (Kd) of 5 µM.
